9 molecules from patent US20260167721A1 (ABLEXIS, published 2026) can be followed below.

B1: CD3 × CD33-BspAb66 (bispecific antibody, human IgG1, kappa)
scFv: EVQLVESGGGLVQPGRSLRLSCAASGFTFDDYAMHWVRQAPGKGLEWVSGISWNSGSIGYADSVKGRFTISRDNAKNSLYLQMNSLRAEDTALYYCAKDSRGYGDYRLGGAYWGQGTLVTVSSGGGGSGGGGSGGGGSGGGGSEIVMTQSPATLSVSPGERATLSCRASQSVSSNLAWYQQKPGQAPRLLIYGASTRATGIPARFSGSGSGTEFTLTISSLQSEDFAVYYCQQYNNWPWTFGQGTKVEIKTSGPGGPDKTHTCPPCPAPEFEGGPSVFLFPPKPKDTLMISRTPEVTCVVVDVSHEDPEVKFNWYVDGVEVHNAKTKPREEQYNSTYRVVSVLTVLHQDWLNGKEYKCKVSNKALPASIEKTISKAKGQPREPQVYTLPPCREEMTKNQVSLWCLVKGFYPSDIAVEWESNGQPENNYKTTPPVLDSDGSFFLYSKLTVDKSRWQQGNVFSCSVMHEALHNHYTQKSLSLSPGK
heavy: EVQLVQSGAEVKKPGSSVKVSCKASGYTITDSNIHWVRQAPGQSLEWIGYIYPYNGGTDYNQKFKNRATLTVDNPTNTAYMELSSLRSEDTAFYYCVNGNPWLAYWGQGTLVTVSSASTKGPSVFPLAPSSKSTSGGTAALGCLVKDYFPEPVTVSWNSGALTSGVHTFPAVLQSSGLYSLSSVVTVPSSSLGTQTYICNVNHKPSNTKVDKRVEPKSCDKTHTCPPCPAPEFEGGPSVFLFPPKPKDTLMISRTPEVTCVVVDVSHEDPEVKFNWYVDGVEVHNAKTKPREEQYNSTYRVVSVLTVLHQDWLNGKEYKCKVSNKALPASIEKTISKAKGQPREPQVCTLPPSREEMTKNQVSLSCAVKGFYPSDIAVEWESNGQPENNYKTTPPVLDSDGSFFLVSKLTVDKSRWQQGNVFSCSVMHEALHNRFTQKSLSLSPGK
light: DIQLTQSPSTLSASVGDRVTITCRASESLDNYGIRFLTWFQQKPGKAPKLLMYAASNQGSGVPSRFSGSGSGTEFTLTISSLQPDDFATYYCQQTKEVPWSFGQGTKVEVKRTVAAPSVFIFPPSDEQLKSGTASVVCLLNNFYPREAKVQWKVDNALQSGNSQESVTEQDSKDSTYSLSSTLTLSKADYEKHKVYACEVTHQGLSSPVTKSFNRGEC
B2: CD3 × CD33-BspAb72 (bispecific antibody)
chain 1: EVQLVESGGGLVQPGGSLRLSCAASGFTFSSYSMNWVRQAPGKCLEWVSYISSSSSTIYYADSVKGRFTISRDNAKNSLYLQMNSLRDEDTAVYYCARDGPVDYGMDVWGQGTTVTVSSGGGGSGGGGSGGGGSGGGGSSYELTQPPSVSVSPGQTARITCSGDALPKQYTYWYQQKPGQAPVLVIYKDSERPSGIPERFSGSSSGTTVTLTISGVQAEDEADYYCQSADSSGTYRVFGCGTKLTVLDKTHTCPPCPAPEFEGGPSVFLFPPKPKDTLMISRTPEVTCVVVDVSHEDPEVKFNWYVDGVEVHNAKTKPREEQYNSTYRVVSVLTVLHQDWLNGKEYKCKVSNKALPASIEKTISKAKGQPREPQVYTLPPCREEMTKNQVSLWCLVKGFYPSDIAVEWESNGQPENNYKTTPPVLDSDGSFFLYSKLTVDKSRWQQGNVFSCSVMHEALHNHYTQKSLSLSPGK
chain 2: B1 heavy
chain 3: B1 light
B3: CD3 × CD33-BspAb73 (bispecific antibody)
chain 1: EVQLVESGGGLVKPGGSLRLSCAASGFTFSSYSMNWVRQAPGKCLEWVSSVNSRGSYIYYADSVKGRFTISRDNAKDSLYLQMNSLRADDTAVYYCARDRRELLLDYWGQGTLVTVSSGGGGSGGGGSGGGGSGGGGSSYELTQPPSVSVSPGQTARITCSGDALPKKYAYWYQQKSGQAPVLVIYEDSKRPSGIPERFSGSSSGTMATLTISGAQVEDEADYYCYSTDSSGNHSWVFGCGTKLTVLDKTHTCPPCPAPEFEGGPSVFLFPPKPKDTLMISRTPEVTCVVVDVSHEDPEVKFNWYVDGVEVHNAKTKPREEQYNSTYRVVSVLTVLHQDWLNGKEYKCKVSNKALPASIEKTISKAKGQPREPQVYTLPPCREEMTKNQVSLWCLVKGFYPSDIAVEWESNGQPENNYKTTPPVLDSDGSFFLYSKLTVDKSRWQQGNVFSCSVMHEALHNHYTQKSLSLSPGK
chain 2: B1 heavy
chain 3: B1 light
B4: ABL-CD3-65 (antibody, V domains shown)
VH: QVQLQQWGAGLLKPSETLSLTCAVYGGSFSGYYWSWIRQPPGKGLEWIGEINHSGSTNYNPSLKSRVTISVDTSKNQFSLKLSSVTAADTAVYYCAREYYYYGMDVWGQGTTVTVSS
VL: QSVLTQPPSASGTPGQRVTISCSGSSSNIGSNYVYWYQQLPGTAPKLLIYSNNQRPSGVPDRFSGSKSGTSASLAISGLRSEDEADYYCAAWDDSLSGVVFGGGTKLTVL
notes: mAb purified from hybridoma; chimeric AlivaMab IgG (human VH, CH1 and upper hinge; mouse middle hinge, CH2, CH3; human light chain)
B5: ABL-CD3-64 (antibody, V domains shown)
VH: EVQVAESGGGLVKPGGSLRLSCAASGFTFSRYSMNWVRQAPGKGLEWVSSISSSGSYTYYADSVKGRFTISRDNAKNSLYLQMNSLRAEDTAVYYCVRERGKGAGMDVWGQGTTVTVSS
VL: NFMLTQPHSVSESPGKTVTISCTRSSGSIASNYVQWYQQRPGSSPTTVIYEDNQRPSGVPDRFSGSIDSSSNSASLTISGLKTEDEADYYCQSYDSSNRVFGGGTKLTVL
notes: as for B4
B6: ABL-CD3-70 (antibody, V domains shown)
VH: EVQLVESGGGLVKPGGSLRLSCAASGFTFSTYIMNWVRQAPGKGLEWVSSITSSSSYIYYADSVKGRFTISRDNAKNSLYLQMNSLRAEDTAVYYCAREKWELLFFDYWGQGTLVTVSS
VL: B5 VL
notes: as for B4
B7: ABL-CD3-66 (antibody, V domains shown)
VH: QVQLQESGPGLVKPSETLSLTCTVSGGSISSYYWSWIRQPAGKGLEWIGRIYASGSTYYNPSLKSRVTMSVDTSKNQFSLKLSSVTAADTAVYYCAREKRSRLYFDYWGQGTLVTVSS
VL: B5 VL with A87G, S96R
notes: as for B4
B8: ABL-CD3-71 (antibody, V domains shown)
VH: B7 VH with S30N, A53T, Y58N, N76K, K99R, R100I, T112I
VL: B5 VL with S96R
notes: as for B4
B9: ABL-CD3-87 (antibody, V domains shown)
VH: B5 VH with V4L, A5V, P14F, G55S, T58K, V97A, R100G, K102N, G103S, A104H
VL: B5 VL
notes: as for B4

Numbering of substitutions follows the chain as printed.

T3 sequence (P07766 23-126, chain 1 of 2): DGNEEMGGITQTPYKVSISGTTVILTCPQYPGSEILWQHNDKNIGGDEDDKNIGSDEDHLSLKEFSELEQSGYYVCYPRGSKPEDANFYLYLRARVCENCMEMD
T3 sequence (P09693 23-116, chain 2 of 2): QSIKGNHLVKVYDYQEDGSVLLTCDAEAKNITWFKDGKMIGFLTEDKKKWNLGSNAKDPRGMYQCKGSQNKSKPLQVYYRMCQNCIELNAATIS
T1 sequence (P07766 23-207, chain 1 of 4): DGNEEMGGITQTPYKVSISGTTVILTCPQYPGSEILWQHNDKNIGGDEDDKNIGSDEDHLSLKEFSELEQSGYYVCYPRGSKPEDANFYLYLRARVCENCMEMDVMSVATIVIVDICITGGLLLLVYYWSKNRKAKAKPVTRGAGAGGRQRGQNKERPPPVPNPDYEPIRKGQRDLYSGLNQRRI
T1 sequence (P04234 22-171, chain 2 of 4): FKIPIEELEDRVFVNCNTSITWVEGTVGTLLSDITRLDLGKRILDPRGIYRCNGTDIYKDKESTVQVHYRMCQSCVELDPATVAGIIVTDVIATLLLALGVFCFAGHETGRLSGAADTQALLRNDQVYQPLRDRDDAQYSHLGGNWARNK
T1 sequence (P09693 23-182, chain 3 of 4): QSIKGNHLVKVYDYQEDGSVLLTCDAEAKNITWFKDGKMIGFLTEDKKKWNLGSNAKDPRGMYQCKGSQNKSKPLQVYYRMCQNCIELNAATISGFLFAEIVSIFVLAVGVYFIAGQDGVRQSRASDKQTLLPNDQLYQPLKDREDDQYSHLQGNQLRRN
T1 sequence (P20963 22-164, chain 4 of 4): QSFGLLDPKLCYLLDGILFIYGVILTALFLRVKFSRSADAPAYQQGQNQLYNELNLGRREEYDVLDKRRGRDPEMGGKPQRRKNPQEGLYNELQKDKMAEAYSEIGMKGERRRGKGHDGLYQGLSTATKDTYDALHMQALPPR

The first test addresses T1, human CD3 (on human Pan-T cells or donor PBMC) (human, UniProt P07766 23-207; P04234 22-171; P09693 23-182; P20963 22-164). The test is described as follows: cell-based or functional assay.
For the molecule B1, the “Cytokine Release Assay (IFNγ), Donor 0, EC50” value came to 12.9 nM; the “Cytokine Release Assay (IFNγ), Donor 0, gMFI max” value worked out at 1.25e+06 gMFI; the “Cytokine Release Assay (IFNγ), Donor 1, gMFI max” value came to 7650 gMFI; the “Cytokine Release Assay (IFNγ), Donor 2, EC50” value was found to be 22.9 nM. In addition, the “Cytokine Release Assay (IFNγ), Donor 2, gMFI max” value is 28300 gMFI; the “Cytokine Release Assay (IFNγ), Donor 3, EC50” value stood at 52.6 nM; the “Cytokine Release Assay (IFNγ), Donor 3, gMFI max” value turned out to be 379000 gMFI.

Take B2: the “Cytokine Release Assay (IFNγ), Donor 0, gMFI max” value came to 465000 gMFI; the “Cytokine Release Assay (IFNγ), Donor 1, gMFI max” value came out at 4820 gMFI; the “Cytokine Release Assay (IFNγ), Donor 2, EC50” value amounted to 49.1 nM; the “Cytokine Release Assay (IFNγ), Donor 2, gMFI max” value was found to be 12200 gMFI. In addition, the “Cytokine Release Assay (IFNγ), Donor 3, gMFI max” value stood at 82800 gMFI.

Consider B3, for which the “Cytokine Release Assay (IFNγ), Donor 0, gMFI max” value was 308000 gMFI; the “Cytokine Release Assay (IFNγ), Donor 1, gMFI max” value stood at 4350 gMFI; the “Cytokine Release Assay (IFNγ), Donor 2, EC50” value was 8.61 nM; the “Cytokine Release Assay (IFNγ), Donor 2, gMFI max” value turned out to be 26900 gMFI. Moreover, the “Cytokine Release Assay (IFNγ), Donor 3, EC50” value was found to be 4.64 nM and the “Cytokine Release Assay (IFNγ), Donor 3, gMFI max” value is 198000 gMFI.

The target of another test is T1, human CD3 (on human Pan-T cells or …). As to the kind of experiment: cell-based or functional assay. This is another data set of the same source.
For B1, the “RTCC Assay, Donor 0, EC50” value turned out to be 2.92 nM; the “RTCC Assay, Donor 0, gMFI max” value is 29700 gMFI; the “RTCC Assay, Donor 1, EC50” value came out at 0.937 nM; the “RTCC Assay, Donor 1, gMFI max” value was 65800 gMFI. The “RTCC Assay, Donor 2, EC50” value worked out at 1.85 nM; the “RTCC Assay, Donor 2, gMFI max” value worked out at 53900 gMFI; the “RTCC Assay, Donor 3, EC50” value amounted to 2.33 nM; the “RTCC Assay, Donor 3, gMFI max” value amounted to 75900 gMFI.

On to B2, for which the “RTCC Assay, Donor 0, EC50” value was 5.36 nM; the “RTCC Assay, Donor 0, gMFI max” value amounted to 21000 gMFI; the “RTCC Assay, Donor 1, EC50” value was 0.819 nM; the “RTCC Assay, Donor 1, gMFI max” value was 78100 gMFI. Besides, the “RTCC Assay, Donor 2, EC50” value came to 2.43 nM; the “RTCC Assay, Donor 2, gMFI max” value was 54100 gMFI; the “RTCC Assay, Donor 3, EC50” value came out at 4.9 nM; the “RTCC Assay, Donor 3, gMFI max” value was determined as 66200 gMFI.

For the molecule B3, the “RTCC Assay, Donor 0, EC50” value stood at 0.086 nM; the “RTCC Assay, Donor 0, gMFI max” value worked out at 15600 gMFI; the “RTCC Assay, Donor 1, EC50” value came to 0.035 nM; the “RTCC Assay, Donor 1, gMFI max” value was 79900 gMFI. For the same molecule, the “RTCC Assay, Donor 2, EC50” value is 0.089 nM; the “RTCC Assay, Donor 2, gMFI max” value amounted to 56100 gMFI; the “RTCC Assay, Donor 3, EC50” value amounted to 0.159 nM; the “RTCC Assay, Donor 3, gMFI max” value was 74000 gMFI.

For a further test, the target named is T2, recombinant human CD3 epsilon/delta heterodimer (human, UniProt P07766 23-126; P04234 22-105).
T2 construct: Recombinant heterodimer used as analyte in Octet; also called hCD3 E/D; human CD3E/D
T2 sequence (P07766 23-126, stated change not applied, chain 1 of 2): as the sequence (P07766 23-126, chain 1 of 2) above
T2 sequence (P04234 22-105, stated change not applied, chain 2 of 2): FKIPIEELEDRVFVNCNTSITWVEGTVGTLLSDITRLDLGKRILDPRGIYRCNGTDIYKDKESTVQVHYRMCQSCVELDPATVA
As to the kind of experiment: BLI (Octet), mAb 5 ug/mL on FAB2G sensor, hCD3 E/D 200-50 nM.
As for B4, the Kd (commonly the equilibrium constant for the complex coming apart) amounted to 22.7 nM, the Response was 0.01, the koff (commonly a measure of how fast the partners let go of each other) is 0.00643 s⁻¹ and the association rate constant (kon) (usually a measure of how fast the partners come together) came out at 283000 M⁻¹ s⁻¹.

For B5, the Kd is 31.6 nM, the Response stood at 0.68, the koff was found to be 0.0054 s⁻¹ and the kon amounted to 171000 M⁻¹ s⁻¹.

Turning to B6, the Kd is 47.1 nM, the Response came to 0.26, the koff worked out at 0.0101 s⁻¹ and the kon turned out to be 214000 M⁻¹ s⁻¹.

For B7, the Kd worked out at 78.2 nM, the Response is 0.41, the koff was 0.0266 s⁻¹ and the association rate constant (kon) was determined as 341000 M⁻¹ s⁻¹.

Take B8: the dissociation constant Kd came to 58.8 nM, the Response was 0.48, the koff stood at 0.0102 s⁻¹ and the kon stood at 173000 M⁻¹ s⁻¹.

B9: the Kd came out at 69 nM, the Response amounted to 0.0358, the off-rate constant (koff) was determined as 0.0166 s⁻¹ and the kon turned out to be 240000 M⁻¹ s⁻¹.

The next test addresses T3, recombinant human CD3 epsilon/gamma heterodimer (human, UniProt P07766 23-126; P09693 23-116).
T3 construct: Recombinant heterodimer used as analyte in Octet; also called hCD3 E/G
As to the kind of experiment: BLI (Octet), mAb 5 ug/mL on FAB2G sensor, hCD3 E/G 200-50 nM. (BLI is a label-free optical method that tracks binding on a fibre tip over time.)
Turning to B4, the Kd was 18.7 nM, the Response worked out at 0.01, the koff is 0.00174 s⁻¹ and the kon is 93200 M⁻¹ s⁻¹.

As for B5, the dissociation constant Kd came out at 71.9 nM, the Response came out at 0.46, the koff is 0.013 s⁻¹ and the kon was 180000 M⁻¹ s⁻¹.

For the molecule B6, the Kd came to 4.87 nM, the Response was 0.11, the koff turned out to be 0.00339 s⁻¹ and the kon is 697000 M⁻¹ s⁻¹.

Regarding B7, the Kd is 92.8 nM, the Response worked out at 0.09, the koff was 0.0856 s⁻¹ and the kon came out at 923000 M⁻¹ s⁻¹.

B8: the Kd worked out at 55 nM, the Response came out at 0.11, the koff is 0.0329 s⁻¹ and the association rate constant (kon) amounted to 598000 M⁻¹ s⁻¹.

With B9, the Kd worked out at 131 nM, the Response was 0.36, the koff stood at 0.0279 s⁻¹ and the kon was determined as 214000 M⁻¹ s⁻¹.
